Laboratory results from the DeepSol protein solubility set.

assay: soluble on expression in E. coli; label from the status in PepcDB or PDB records

Row | Sequence | soluble on expression in E. coli
1 | MPAKIPITDNHMHIDPRARGLEAVKEFKNSGGTHIILVTKPSWSLGIAVKKPEDYLAVFDETVEIASKIREIGVGAFPVLGVHPAEISKITEYMDLSEAVETMKKGLELAAGYVERGLAVGIKSGRPHYPVPSDVWEASNEIMEHAFSLGKEQDCAVQLHTESVQEPELKDIAERARKTGIKMYRVVKHYSPPLVKTCEELGIFPGVISVKGAIEKAIEEGTRFMMETDYIDDPDRPGAVLGPKTIPKRTIKLMETYGEEPFWTIHKENPEKVYDIEIEL | not soluble
2 | SFHGIPATPGIGAPGNKPELYEEVKLYKNAREREKYDNMAELFAVVKTMQALEKAYIKDCVSPSEYTAACSRLLVQYKAAFRQVQGSEISSIDEFCRKFRLDCPLAMERIKEDRPITIKDDKGNLNRCIADVVSLFITVMDKLRLEIRAMDEIQPDLRELMETMHRMSHLPPDFEGRQTVSQWLQTLSGMSASDELDDSQVRQMLFDLESAYNAFNRFLHA | soluble
3 | GPGSMNYEGHLKGHRGWVTSLACPQQAGSYIKVVSTSRDGTAISWKANPDRHSVDSDYGLPNHRLEGHTGFVSCVSLAHATDYALTASWDRSIRMWDLRNGQCQRKFLKHTKDVLAVAFSPDDRLIVSAGRDNVIRVWNVAGECMHEFLRDGHEDWVSSICFSPSLEHPIVVSGSWDNTIKVWNVNGGKCERTLKGHSNYVSTVTVSPDGSLCASGGKDGAALLWDLSTGEQLFKINVESPINQIAFSPNRFWMCVATERSLSVYDLESKAVIAELTPDGAKPSECISIAWSADGNTLYSGHKDNLIRVWSISDAE | soluble
4 | MNNLSVNGSSNGLFAKPTIGRSEYGRVKVALAPGKGFMDWLRLTTNKHLAKRVSGGVDHVELMKHNTKDDCWVHLFGIVYDVTKYLDFHPGGIPELLRGAGRDATPLFNQYHAWVNYESMLKACVVGPFIGDLTKLPSPLPPTTSDDKNKLGVPSSALFSTDPSENGYGARVETLSDNSGISFEHDDWTELTEHNTSINTRGEENTEEHARLRVLIHHFWKPAMEFEFEPTPALCHVEYTLKIMKNRVEIRFSREISGGKIDRSKCKIQRRPGVTYHTTEIIDRYRLNHDTLIFSLQLPEHTTYRIPIGHHVSIKIRKGSMGKFSWKFFLIFGYSVLYRPYTPISNPDPQKIDFMIKIYSNGICTPSLENLKIGGELEISDPIGERNFAEWTENAQELILLAAGSGITPMIDIMEKRIQKTENSNSKVYFLMFNKTENDLQTGKPEENPKSTWKMADFYSKYRGDERIVMKNVLSASECPVETGEYFNGRVSTDLLNSIISTSSTASRRAFICGPDGFILAAKTALESLNLHSDQIHIFQG | not soluble
5 | MLIDTDFFLSNRSDSLVLDVRSPEEYRRGHIPGAESFPLFSDAERAEVGTLYVRHSRQAAVERGLEFVGPRMAEMVREARSLAAGRDIILYCWRGGMRSESVAWLLSVAGLRIRRLRGGYKAYRRHFPDILKLYPWRFIVLGGYTGSGKTPILNELTQMGEQVIDLEGLAHHKGSAFGALGQEQQPTTEHFMNLLHDALSACDPNRPIWVESESKTIGRVFLPDDFYKVMRQAPLIELSVPRPVRIAHIAKEYGVYDAEALANSFEHIARRMGGAATTQAITALKEGRLEEAVSLALDYYDKAYAHSLAEFRESSSARLAVETDTPHETAIKLLELSHIKGLQS | not soluble
6 | MSLTNIEEFMPEKLAKAIANPLFPELDSLLRSGRHVASEDLDNHALLCEFEHELGLFYQRYNAELVKAPEGFFYLRPRSTSFIARSVLAEIDMLVGKVLCFLYLSPERLAHEGIFTNQELFDELLVLADEQKLMKLVTNRASGSDLDKEKLFDKVRTSLRRLKRLGMIIPVGEQGKFRISEAVFRFGADVRTSDDMKEAQLRLIRDGEAVVVHQEEASQSSLDLDADSNEKPAEEQHELELEGDLLEHHHHHH | soluble
7 | ISEFGSTMARAIYDFFSTPFGNRGLATNRTQLSSLLSSSNSPWQRFLSSMTPLTAPGIVSTPEAPYPGSLMYQESMLHSATVPGVLGSRDAWRTFNVFGLSWTDEGLSGLVAAQDPPPAAPYQPASAQWSDLLNYPRWANRRRELQSKYPLLLRSTLLSAMRAGPVLYVETWPNMISGRLADWFMSQYGNNFVDMCARLTQSCSNMPVEPDGNYDQQMRALISLWLLSYIGVVNQTNTISGFYFSSKTRGQALDSWTLFYTTNTNRVQITQRHFAYVCARSPDWNVDKSWIAAANLTAIVMACRQPPVFANQGVINQAQNRPGFSMNGGTPVHELNLLTTAQECIRQWVMAGLVSAAKGQALTQEANDFSNLIQADLGQIKAQDDALYNQQPGYARRIKPFVNGDWTPGMTAQALAVLATFTA | soluble
8 | VATLNESIEAGLEPGAVALILEAFPIEDRVRLWRALPLELHIDVLTEMRADVRFSIINALSEVELKLTLAKLDNLSLIEWADSLPESIINEALALIEKDELELYDQANEYEDDELGRWAERKIITLPFNITVGTAKQLMERYSYDTPQQVYLINRNKQFRGAVNYYEILRSDSGVRLKTLEIETVTVLDSKMTLPEAVEALEHSALPALPVTDADQTLIGEVDWQFALSTQREIYEARLMAGTGMDEGDDLFAPVLKSSQKRGV | not soluble
9 | MENYLIDNLDRGILEALMGNARTAYAELAKQFGVSPETIHVRVEKMKQAGIITGARIDVSPKQLGYDVGCFIGIILKSAKDYPSALAKLESLDEVTEAYYTTGHYSIFIKVMCRSIDALQHVLINKIQTIDEIQSTETLIVLQNPIMRTIKP | soluble
10 | MGDTGKLGRIIRHDAFQVWEGDEPPKLRYVFLFRNKIMFTEQDASTSPPSYTHYSSIRLDKYNIRQHTTDEDTIVLQPQEPGLPSFRIKPKDFETSEYVRKAWLRDIAEEQEKYAAERD | soluble
11 | MSSAAKNFYQVVKSAPKGRFKGIKRDYTVEDVLKLRGSIDIDYTLATRGANKLWQLLHTEPFVPALGAQTGNQAVQMVRAGLKAIYLSGWQVAADANSAGDMYPDQSLYPANSGPELAKRINRSLRRADQIEACEAEDYLAQRDWYAPIVADAEAGFGGALNCFELMKAYIEAGAAGVHYEDQLGSEKKCGHMGGKVLIPTAQHIRHLNASRLAADVCGVPTIIVARTDAESSRLLTSDIDPRDHPYIDYEAGRTIEGFYRLKDSTAIQYCIDRAIQYAPYTDLIWMETSHPTIADAREFAEGVHKQYPDKMFAYNCSPSFNWKKHLSPSQMEKFQKELGAMGFKYQFITLAGYHANSYSMFDLARNYKEKGMLAYSGLQEGEFAAEKHGYTAVKHQREVGTGYFDAVSRAVTGGLSSTTALSGSTEEAQFQTAVASQDEEILSLTAQNVAGDEKILTPDALRFLHDLNTEFNPRRLRLLSKRNQVQADINNSLWFPDFNKETEVLRSDQGWKGAEIPRDLQDRRVEITGPTDRKMVINAMNSGANVFMADFEDSNSPTWRNQLEGQINLYDAVRNNISYTHPTTKKEYTLNEKHAVLKVRPRGWHLPEKHVLIHNQPTSGSLFDFGLFVFHNAKALIAQGSGPYFYLPKLQSAEEAQLWADVFKYTEDKLGLARGTIKCTVLIEHLLASFQLHEIIHALKDNIVGLNCGRWDYIFSYIKTFQNHRKFLLPDRFQIGMTAPFMRNYSLEVIKACHLRGIHAMGGMAAQIPIKHDQVANDKAFALVRADKEREATDGHDGTWVAHPGLVPLAKRVFDQMMPKPNQISKNLTRANCTKEDLTVIPEGTRTEAGFRHNISVTLGYLDSWLRGTGCVPLYNLMEDAATAEISRAQLWQWLHHDAKLEDGRTIDAGLVKQTIAAETERRLIRAGSVVNRIPEAADLLEKFVTEEKMSDFLTTDAYDRLVSEGY | not soluble
12 | MAVYLDFENHIKEIQNEIELALIRGDEDAKEILEKRLDKEVKSIYSNLTDFQKLQLARHPDRPYAMDYIDLILKDKYEVFGDRHYNDDKAIVCFVGKIDNVPVVVIGEEKGRGTKNKLLRNFGMPNPCGYRKALKMAKFAEKFNLPILMLVDTAGAYPGIGAEERGQSEAIAKNLQEFASLKVPTISVIIGEGGSGGALAIAVADKLAMMEYSIFSVISPEGCAAILWDDPSKTEVAIKAMKITPRDLKEAGLIDDIILEPSKGAHRDKFSAANTIKEYFLDALRTIQQDPHFLDNRYQKLMSLGSFVESMN | soluble
13 | MLSFRNWWAREDSNPRPPGYEPGALPTELRAHTAIRLYSNKTPLSRSVISMKKDPIKEMLVKYPRILVIKAALKILKDGNKIDRERIEKTIVKIMTKKEGLEHHHHHH | soluble
14 | MSLKAVTQCSQFFHEVSLPHLKPETTYYYRIPAANGTTESDILSFTTARAPGDKRSFTVAVLNDMGYTNAQGTHRQLLKAANEGAAFAWHGGDLSYADDWFSGILPCADDWPVCYNGTSTQLPGGGPIPEEYKQPLPQGETANQGGPQGGDMSVLYESNWDLWQQWMTNLTVKIPHMVMPGNHESACAEFDGPGNPITAYLNEGIPNGTWPAENLTYYSCPPSQRNFTAFQHRFHMPGKETGGVGNFWYSFDYGLAHFVSLDGETDFANSPFSTFERDLTGNETHPRPEETETTDSGPFGTIDGDRYDDNTAYAQYQWLKRDLASVDRTKTPWVFVMSHRPMYSSAYSSYQTNVRNAFENLLLQYGVDAYLSGHIHWYERMFPMTANGTIDESSIADNHTYTTNSGKSMTHIINGMAGNIESHSWFDEGEGLTEITAKLDRTHFGFSKLTVVNETVVNWEFVKGDDGSTGDWLTLVKGETCTINEGHHHHHH | not soluble
15 | MKIGFIGAGKMAQALARGLINSGRITADNIIASSPKRDEVFLDQCKALGLNTTHDNAEVVQKSDVVFLAVKPVHVSKVASEIAPALSKEHLVVSIALGITIRNIESLLPTKSRVVRVMPNTPSVVRAGASAFAMGSACRDGDAETVEKLLSTVGFAVEVPEIHIDPVTGLSGSGPSYMFAVIEGLADGGVKVGLPRDLALKLAAYTLLGAAKMVLETGIHPAQLKDDVQSPAGSSVYGMHKLESGGLKGVLMDAVEAATNRSRATGDKALPRDFRNTEM | not soluble
16 | MGSDKIHHHHHHMSPQEYCQNKAAASGSSFYYSFLFLPKAKREAITALYAFCREVDDIADDVQDVNVAQTKLNWWRSEIINLFEGKPQHPVTMALQSPVRELKLKQQHFLEIINGMQMDLEQNRYRDFEELELYCYRVASVVGLLSASIFGYSNPQTLQYALDLGMAFQLTNITRDVGEDGRRGRIYLPLDEISRFGVSEQDILQGKASDNMRQLLEFQVERAERYYEKALAELPLEDRKQQRTGLIMASIYRTLLKEIKRDDIQVVLNARVSLTPIRKLWLAWLTWIRN | not soluble
17 | MSLQPAPFLILDDDDVFAQTLARALTRRGFAPQIAHTGGEALSLARQTPFAYVTVDLHLAASDRGLMPHGGTDSGLHWIAPLRQALPEARMLVLTGYASIATAVQAVKLGADEYLAKPANVDSILLALQVGVSEAVAEQTMENPAPLSVARLEWEHIQRVLSEHGGNISATARALNMHRRTLQRKLGKRPVAEGHHHHHH | soluble
18 | MGHHHHHHSHVVAILGMGWGAGTGLEMPSAASRGASLLNMQSLGLWTWDCLQGHWAPLIHLNSGPPSGAMERSPTWGEAAELWGSHILLPFRIRHKQTLFASLK | not soluble
19 | EGIRQGVLKTAQNGNGNLIYLTGGMATVDHGAFHQGKFLTLKMDDSEVVRALPDVKSVAPTAKWKERITVGDRSSWQEPLAVTSEFQSMTNLVPMAGGRWLNPLDQKETRKVVVLGYELAADLFNPNEDFSWFATVTLQVNPVGKKVKIGNEEFTVVGVLEKNSAQIELGDLINYSSFVPLATWKRFHVNGEIGGINVQPQADVDREALAKTIRQVIARKHGASVNDEQVVQVDDMFLKQKSMQQFLIGLQS | not soluble
20 | MGGITMTAVVSNRDKINFHEVADHYHSNKIIFGIKFLKNWALERLASCAPVPSWRAKLHKMRGVNIGENVYIGYDVIFDRIHPEMITVGDYAEIGDRCILSAHSRGSLTTRQAYPRSIAPIKIGRGVSVNPGCIITQGVEIGDNSIIGVGSVVSRNISPNSLALGYPAKVIKKLDG | soluble
